How the values were obtained:
[1] = target: βPix-SH3 mutant-Myc (W43K)

Rac1 activity (Rac1-GTP by GST-PBD pull-down) in HEK293T cells transfected with the Flag-tagged SH3 mutant of βPix and Dyn2-GFP [1]: 50%
Rac1 activity (Rac1-GTP by GST-PBD pull-down, against total Rac1) in HEK293T cells transfected with Flag-βPix and Dyn2-GFP, relative to non-transfected cells (Flag-βPix): 3 fold
B1: Dyn2-GFP (natural protein)
chain: MGNRGMEELIPLVNKLQDAFSSIGQSCHLDLPQIAVVGGQSAGKSSVLENFVGRDFLPRGSGIVTRRPLILQLIFSKTEYAEFLHCKSKKFTDFDEVRQEIEAETDRVTGTNKGISPVPINLRVYSPHVLNLTLIDLPGITKVPVGDQPPDIEYQIKDMILQFISRESSLILAVTPANMDLANSDALKLAKEVDPQGLRTIGVITKLDLMDEGTDARDVLENKLLPLRRGYIGVVNRSQKDIEGRKDIRAALAAERKFFLSHPAYRHMADRMGTPHLQKTLNQQLTNHIRESLPTLRSKLQSQLLSLEKEVEEYKNFRPDDPTRKTKALLQMVQQFGVDFEKRIEGSGDQVDTLELSGGARINRIFHERFPFELVKMEFDEKDLRREISYAIKNIHGVRTGLFTPDLAFEAIVKKQVVKLKEPCLKCVDLVIQELISTVRQCTSKLSSYPRLREETERIVTTYIREREGRTKDQILLLIDIEQSYINTNHEDFIGFANAQQRSTQLNKKRAIPNQGEILVIRRGWLTINNISLMKGGSKEYWFVLTAESLSWYKDEEEKEKKYMLPLDNLKIRDVEKGFMSNKHVFAIFNTEQRNVYKDLRQIELACDSQEDVDSWKASFLRAGVYPEKDQAENEDGAQENTFSMDPQLERQVETIRNLVDSYVAIINKSIRDLMPKTIMHLMINNTKAFIHHELLAYLYSSADQSSLMEESAEQAQRRDDMLRMYHALKEALNIIGDISTSTVSTPVPPPVDDTWLQNTSSHSPTPQRRPVSSVHPPGRPPAVRGPTPGPPLIPMPVGATSSFSAPPIPSRPGPQNVFANNDPFSAPPQIPSRPARIPPGIPPGVPSRRAPAAPSRPTIIRPAEPSLLD
